The DeepSol protein solubility set

test: soluble on expression in E. coli; label from the status in PepcDB or PDB records

Soluble on expression in E. coli, soluble:
AGHMTSILSRNHVKVKGSGKASIMFAPGFGCDQSVWNAVAPAFEEDHRVILFDYVGSGHSDLRAYDLNRYQTLDGYAQDVLDVCEALDLKETVFVGHSVGALIGMLASIRRPELFSHLVMVGPSPCYLNDPPEYYGGFEEEQLLGLLEMMEKNYIGWATVFAATVLNQPDRPEIKEELESRFCSTDPVIARQFAKAAFFSDHREDLSKVTVPSLILQCADDIIAPATVGKYMHQHLPYSSLKQMEARGHCPHMSHPDETIQLIGDYLKAHV
MSLSHYDRMKRSSIAPYRRSNDSSNRIDKKTGKKGHGLMSKLKDLVSFGWAQEHHKDNDFSARDTGRERTNVSKGSYAAVPGGFFSSDQSSFILRERSRIMNESTMHSEADTSNAKLADFFAKKGNEPLSEIEMEGVLALMQKSRGVADESSFLGNSSRLLGDISNANASQVLRTGNISTSSALNVPNFKPSTDESRNINAKEVENSTIVSTPLKRKNFDYSSIRSPYRTVIYRFDDSNKKKISSVFDKPESSSQEVDETPKPSNSKPLSNTASALVSLLSDKDAAKESIKPMANPYTSHLTALRKSREDLPSINDKITVPKRRQRSETEDKEEAKITSSNGEAQEDTNIPEGIASRKNEEAQDSFTKYKPMRSSSLRDSVSLAHTESNNEKQMNSPKFVPAPLDKNETKETAKSDLTLTSSDKQSESKPSFSFPVNSTTKSTFMGTKKESTSPAVNSEGHHHHHH
MLGDVYHLFSGGKDSSLAAWILRKLGYEVRLVTITFGVLDNWKYAKETADILGFEHEVVRLPRELLNMAVEMCIEDGKPGRAIQFLHEKALEYVASRSYVKRISDGTRRDDKVPFLDLRKARSLEDRFNVAYIRPLLGLGYKTIRELANSIFVIEERESEKLEKGDYEAELRYMLRERGINPKTIFPSRHMQSRVVGIKDDELGRS
MSLTKPFDVTLTREIIKIESVYAKMIENENILYLRVTNFDKNVVDVASKELKKYPNVKGVILDLRNNPGGLLNQAIGLVNLFVDKGVIVSQKGRIASENQEYKADPKNKISNASLVVLVNGGSASASEIVSGALQDLKRGVIVGENTFGKGSVQQIIPINKTEALRLTIARYYLPSGRTIQAVGVKPDIEVFPGKVNTQEDGFSIKESDLKQHLESELEKIDKNKKEDKQENKDNKNLISQKQINDDAQLKSAIDTIKILNIKQGEGHHHHHH
MKLLVATTNEGKYREIKEILSEYGIEVLKPEEKLEVEETGCTFLENAYLKARAYYERYKIPALADDSGLIVEAISPYPGVYSSRFYDIDFGGREEVRTNKDEANIRKLLRLLENTENRKAKFVAFIVVYGGSWGIFAEGEVRGEITKEPRGDRGFGYDPVFVPEGYNKTMAELSPEEKNKISHRGRALRKLVHVLKNCEKAF
MVKLMEVYEGKAKKMIPIDDDKLIMEFKDDATAFDGTKKARFKGKGWLNAQLSVIFFKLLEEHGIKTHFIGVAGGNRLIVEKLDMYPLEVVVRNVVAGSLKKRLPLPEGYELPEPIVELYYKNDELHDPMINYYHAKVLGISLDEIKKIEEIALKVNEILKDYLAKKGIILVDFKLEFGKDKNGDIVLADEISPDTCRFWDAKTKRSLDKDVFRFDKGDLIEAYKEIYERITGEKPEF
MGNTSSERAALERHGGHKTPRRDSSGGTKDGDRPKILMDSPEDADLFHSEEIKAPEKEEFLAWQHDLEVNDKAPAQARPTVFRWTGGGKEVYLSGSFNNWSKLPLTRSHNNFVAILDLPEGEHQYKFFVDGQWTHDPSEPIVTSQLGTVNNIIQVKKTDFEVFDALMVDSQKCSDVSELSSSPPGPYHQEPYVCKPEERFRAPPILPPHLLQVILNKDTGISCDPALLPEPNHVMLNHLYALSIKDGVMVLSATHRYKKKYVTTLLYKPI
MSLKDMIDSIEQFAQTQADFPVYDCLGERRTYGQLKRDSDSIAAFIDSLALLAKSPVLVFGAQTYDMLATFVALTKSGHAYIPVDVHSAPERILAIIEIAKPSLIIAIEEFPLTIEGISLVSLSEIESAKLAEMPYERTHSVKGDDNYYIIFTSGTTGQPKGVQISHDNLLSFTNWMIEDAAFDVPKQPQMLAQPPYSFDLSVMYWAPTLALGGTLFALPKELVADFKQLFTTIAQLPVGIWTSTPSFADMAMLSDDFCQAKMPALTHFYFDGEELTVSTARKLFERFPSAKIINAYGPTEATVALSAIEITREMVDNYTRLPIGYPKPDSPTYIIDEDGKELSSGEQGEIIVTGPAVSKGYLNNPEKTAEAFFTFKGQPAYHTGDIGSLTEDNILLYGGRLDFQIKYAGYRIELEDVSQQLNQSPMVASAVAVPRYNKEHKVQNLLAYIVVKDGVKERFDRELELTKAIKASVKDHMMSYMMPSKFLYRDSLPLTPNGKIDIKTLINEVNNREGHHHHHH
AETEKEKQDWIEAVQQSIAETLSDYEVAEKIWFNESNRSCADCKAPDPDWASINLCVVICKKCAGQHRSLGPKDSKVRSLKMDASIWSNELIELFIVIGNKRANDFWAGNLQKDEELHMDSPVEKRKNFITQKYKEGKFRKTLLASLTKEELNKALCAAVVKPDVLETMALLFSGADVMCATGDPVHSTPYLLAKKAGQSLQMEFLYHNKFSDFPQHDIHSEGVLSQESSQSTFLCDFLYQAPSAASKLSSEKKLLEETNKKWCVLEGGFLSYYENDKSTTPNGTININEVICLAIHKEDFYLNTGPIFIFEIYLPSERVFLFGAETSQAQRKWTEAIAKHFVPLFAENLTEADYDLIGQLFYKDCHALDQWRKGWFAMDKSSLHFCLQMQEVQGDRMHLRRLQELTISTMVQNGEKLDVLLLVEKGRTLYIHGHTKLDFTVWHTAIEKAAGTDGNALQDQQLSKNDVPIIVNSCIAFVTQYGLGCKYIYQKNGDPLHISELLESFKKDARSFKLRAGKHQLEDVTAVLKSFLSDIDDALLTKELYPYWISALDTQDDKERIKKYGAFIRSLPGVNRATLAAIIEHLYRVQKCSEINHMNAHNLALVFSSCLFQTKGQTSEEVNVIEDLINNYVEIFEVKEDQVKQMDIENSFITKWKDTQVSQAGDLLIEVYVERKEPDCSIIIRISPVMEAEELTNDILAIKNIIPTKGDIWATFEVIENEELERPLHYKENVLEQVLRWSSLAEPGSAYLVVKRFLTADTIKHCSDRSTLGSIKEGILKIKEEPSKILSGNKFQDRYFVLRDGFLFLYKDVKSSKHDKMFSLSSMKFYRGVKKKMKPPTSWGLTAYSEKHHWHLCCDSSQTQTEWMTSIFIAQHEYDIWPPAGKERKRSITKNPKIGGLPLIPIQHEGNATLARKNIESARAELERLRLSEKCDKESVDSSLKERASMVAHCLEHKDDKLRNRPRKHRSFNCLEDTEPEAPLGQPKGHKGLKTLRKTEDRNSKATLDSDHKLPSRVIEELNVVLQRSRTLPKELQDEQILK
MSLDSPPIRVFVVEDQTKILKNQLRLFENHPEMDIIGTALSGEAALEEVPKLMPDVLLLDLGLPRMSGIDVTREVKARFPKIEILIFTIFDEEDKVLEAVKAGASGYLLKGAPVDKIIEAIKEVRAGGTVIQPNLARRLLRHFRVEPDASPLISPPAAPEPSASDLPQEPLLKPLSDREREILQLIAKGVSNSEAARLLDLSKATIRTHLEHIYRKLEVTNRVEAVTEGIRKGLISEGHHHHHH
MSHVELQPGFDFQQAGKEVLAIERECLAELDQYINQNFTLACEKMFWCKGKVVVMGMGKSGHIGRKMAATFASTGTPSFFVHPGEAAHGDLGMVTPQDVVIAISNSGESSEITALIPVLKRLHIPLICITGRPESSMARAADVHLCVKVAKEACPLGLAPTSSTTATLVMGDALAVALLKARGFTAEDFALSHPGGALGRKLLLRVNDIMHTGDEIPHVKKTASLRDALLEVTRKNLGMTVICDDNMMIEGIFTDGDLRRVFDMGVDVRQLSIADVMTPGGIRVRPGILAVEALNLMQSRHITSVMVADGDHLLGVLHMHDLLRAGVV

Soluble on expression in E. coli, not soluble:
MKKPFSKLFGLKNKDDIIGHIEEDRNSNVESIQIERIVPNRYQPRQVFEPNKIKELAESIHEHGLLQPIVVRPIEEDMFEIIAGERRFRAIQSLNLPQADVIIRDMDDEETAVVALIENIQRENLSVVEEAEAYKKLLEIGDTTQSELAKSLGKSQSFIANKLRLLKLAPKVLLRLREGKITERHARAVLSLSDSEQEALIEQVIAQKLNVKQTEDRVRQKTGPEKVKAQNLRFAQDVTQARDEVGKSIQAIQQTGLHVEHKDKDHEDYYEIKIRIYKR
MVLSVADAKKLTVPRLKEELASRGLDNTGNKPELLARLTESIEQAADELLGDAGITSDTHLLSDDILNDDILDAPSVGDESEADKLLGSVDGAEEHKTDKSEGEEKHEVHLIDKKIDEVTAETDKRARAIRFGLPVTAEDLGSDGAKAARAKRFDLPEDSKRLTSNDAKASRAERFGITPKTPAADDKLAARAARFGIPVGGAASASASKNAPNSEGKAAKLAARAKRFGGEIDDEEMEAKKKARMERFGTSN
MKAAEHDLLTIELAPRRRDELQIHNKKIAEVDHWLKNVFSESNKQLGVMYLTGPAGSGKSTTVEVMCTEQNIEIIEYSPEYLHNEDFECEKPDFTQLRRFLLRRHGSLRGGGLKKRLLLVTELPDQAYSDAEKFREDLSEVLQHIWHPVIFCLTNSIACWNLNPDRLFTKDFNIMNGIDTVTFNPVADSFMKKALVRASNCLSSPLSDAKLNVIGEEAGGDLRIAMNMLQMNSIGPNADRRSGNSVICASKANREEAFHMIGRILYAKRVNPNVPKPSRFSKRRRKSAPIPEPLVRTELEHDPTDIITMSSMTSEKLLDFLFQNEPIFCSNISKYRYVAETFSMCDFLTGDWTTRKSLPEDYVAQMATRSVMWNNYKEPRPGTLFAVGRPLRSSLEKHTARTKLELQRLPMIGAKDYAALTCPYITIIKDIIDPQRIEYFLSRPMDINWQWGNDKIEEHLEKQYALDYKGRKKHRLPLHKAPKPSGKIIEVVDLEEEEEKFTIEESSDDSFEEF
MQVSDFHFELPDELIARYPKAERTASRLLQLDGNSGQLVDGTFKDVLELVEPGDLLVFNNTRVIPARMFGRKASGGKLEVLVERMLDEHTILAHVRSSKPPKPGTELYLGENDEFHAVMQARHDALFEIRFTAETVVLDILNQIGHMPLPPYIDRPDEEADKERYQTVYNQKPGAVAAPTAGLHFDQALLEQIQAKGVELAYVTLHVGAGTFQPVRVENIHDHHMHAEYVEVPQEVVDAITATKARGGRVVAVGTTSVRSLESAAQDALQKGTELKPFFGDTEIFIFPGYQYQLVDCLITNFHLPESTLIMLVSAFAGYEHTMAAYEHAVKEQYRFFSYGDAMFIRKQMTKA
MTSDIKAILEQVVISPDVPIAEAIAQLDRAGTGSLVVCSADKKLYGLLTDGDVRRALLKAVDMGAPCGDIANRKPVITFVPLLPIEALRLMNHHDINHLPVLDAEGRVVDFLLRRDLVAEDELAARARRRLDSVVIPCSASIAEAIAQLDRAGTGALVLCSEGDRLHGLLTDGDIRRAVLRGISLDAPCQDVASRRPVTVEPSFSAAQALHLMNQHDINHLPVVDDTGRVVDFLLRRDLIADDQLNLSAVVMAGGYGKRLLPLTEQVPKPMLPVGDRPLLERTIDQLRRSGIREVNLTTHYLPDSIVEHFGDGDSFGVKLNYLKEDHPLGTAGGLKLMKKASDPFLVMNGDILTGVPFQEMFAYHRKNGAEITVGVRKYEVQVPFGVVECDDVRITGLKEKPSLTFFINAGIYLLEPSVCDLIPEGERFDMTDLIQKLLDEGRSVVSFPIMEYWLDVGRHEDYQKAQEDVRSGKIQLEHHHHHH
AQGLQARFQLLRVLEVPADDAVAKGLEISFGEPVALIERLGLADEEPISVGSGYFPLKRFPDFLEPENIKILQEQQSISQFLQQVYGCDHIRRSTCVSARLVQPQDAKWLQIPLNQPILLAESVNVDQAGNVIEYGVTRLRGDRME
YNPLNSVEDSTNRRDTVLQNMVAAGYIDKNQETKAAEVDMTSQLHDKYEGKISDYRYPSYFDAVVNEAVSKYNLTEEEIVNNGY
MKNLIAELLFKLAQKEEESKELCAQVEALEIIVTAMLRNMAQNDQQRLIDQVEGALYEVKPDASIPDDDTELLRDYVKKLLKHPCQ
